Reference: PMC5552228, “Mapping the contact surfaces in the Lamin A:AIMP3 complex by hydrogen/deuterium exchange FT-ICR mass spectrometry” (PLoS ONE, 2017)

Molecular target: T1, His-Tev-AIMP3 (aminoacyl-tRNA synthetases-interacting multifunctional protein 3) (human, UniProt O43324 1-174)
T1 construct: also called AIMP3/p18; MSC p18; source: E. coli BL21 (DE3), pET28a, purified (Ni-HiTrap, desalting column); not shown: His6-Tev (6-his tag and Tobacco Etch Virus protease cutting site, aa1-22 of the construct), N-terminal, kept
T1 sequence (looked up): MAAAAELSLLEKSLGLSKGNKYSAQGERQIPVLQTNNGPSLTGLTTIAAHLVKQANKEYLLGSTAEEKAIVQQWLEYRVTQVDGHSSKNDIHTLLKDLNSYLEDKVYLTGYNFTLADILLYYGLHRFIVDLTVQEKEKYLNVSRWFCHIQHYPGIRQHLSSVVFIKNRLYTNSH
Assay: HDX-MS; AIMP3 and LmnA mixed in 1:1 ratio, 40 uM stock, 20 mM Hepes, 150 mM NaCl, pH 7.5, diluted into D2O; 0.5-240 min at 0.4 °C; protease type XIII digestion; LC-ESI 14.5 T FT-ICR MS; free against complexed protein
Settings: both partners purified

B1: His-Strep-TrxA-LmnA (C-terminal part of Lamin A, 567-646) (domain or fragment, UniProt P02545 567-646, looked up)
chain: GSHCSSSGDPAEYNLRSRTVLCGTCGQPADKASASGSGAQVGGPISSGSSASSVTVTRSYRSVGGSGGGSFGDNLVTRSY
notes: C-terminal part of mature Lamin A, residues 567-646 by the methods (the results say aa567-647, 80 aa); ends in NLVTRSY (203-209 of the construct); also called LmnA C-terminus; LmnA (aa567-647); source: E. coli BL21 (DE3), pET28a, purified (as for AIMP3: Ni-HiTrap, desalting column); not shown: His, N-terminal, kept; Strep, N-terminal, kept; TrxA (thioredoxin), N-terminal, kept
- binding result: binds
